The text below walks through data of patent publication US20250019450A1 (DIAGONAL THERAPEUTICS, published 2025).

The EC50 is the concentration giving half of the maximal effect.

Sequences and labels used below:
B1: DGL415 (bispecific antibody, human IgG1, kappa)
heavy 1: not shown
heavy 2: QVQLVESGGGLVQAGGSLRLSCAASGRTFSRYRMGWFRQAPGKEREFVAAITKSGATTYDADSVKGRFTISRDNAKNTLYLQMNSLKPEDTAVYYCAASYHSNWWPKNADEYAYWGQGTQVTVEPKSSDKTHTCPPCPAPEAAGAPSVFLFPPKPKDTLMISRTPEVTCVVVDVSHEDPEVKFNWYVDGVEVHNAKTKPREEQYNSTYRVVSVLTVLHQDWLNGKEYKCKVSNKALPAPIEKTISKAKGQPREPQVCTLPPSRDELTKNQVSLSCAVKGFYPSDIAVEWESNGQPENNYKTTPPVLDSDGSFFLVSKLTVDKSRWQQGNVFSCSVMHEALHNRFTQKSLSLSPG
light: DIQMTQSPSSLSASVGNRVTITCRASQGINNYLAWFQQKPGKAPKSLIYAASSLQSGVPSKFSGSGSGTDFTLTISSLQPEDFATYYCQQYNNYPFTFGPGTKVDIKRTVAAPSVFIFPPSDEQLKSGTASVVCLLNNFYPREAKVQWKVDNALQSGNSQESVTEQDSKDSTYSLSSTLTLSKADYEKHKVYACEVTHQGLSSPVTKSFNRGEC
B2: DGL397 (bispecific antibody, human IgG1, kappa)
heavy 1: not shown
heavy 2: QVQLVESGGGLVQAGGSLRLSCAASGRIFSAYRMGWFRQAPGKEREFVAGITWRGQTTYYAASVKGRFTISKDNAKKTVYLQMNSLKPEETAVYYCAVETNGLGRWDRPSEYDYWGQGTQVTVEPKSSDKTHTCPPCPAPEAAGAPSVFLFPPKPKDTLMISRTPEVTCVVVDVSHEDPEVKFNWYVDGVEVHNAKTKPREEQYNSTYRVVSVLTVLHQDWLNGKEYKCKVSNKALPAPIEKTISKAKGQPREPQVCTLPPSRDELTKNQVSLSCAVKGFYPSDIAVEWESNGQPENNYKTTPPVLDSDGSFFLVSKLTVDKSRWQQGNVFSCSVMHEALHNRFTQKSLSLSPG
light: DIQLTQSPSFLSASVGDRVTITCRASQGISSYLAWYQQQPGKPPKLLIYAASTLHSGVPSRFSGSGSGTEFTLTISSLQPEDFATYYCQQLNRYPYTCGQGTKLEIKRTVAAPSVFIFPPSDEQLKSGTASVVCLLNNFYPREAKVQWKVDNALQSGNSQESVTEQDSKDSTYSLSSTLTLSKADYEKHKVYACEVTHQGLSSPVTKSFNRGEC
B3: DGL395 (bispecific antibody, human IgG1, kappa)
heavy 1: not shown
heavy 2: QVQLVESGGGLVQAGGSLRLSCAASGRTFSSYAMGWFRQAPGKEREFVSAISWSGLSTYYVESVQGRFTISRDNAKNTVYLQMNSLKPEDTAVYYCAASRIYTNYVARSYEYDDWGQGTQVTVEPKSSDKTHTCPPCPAPEAAGAPSVFLFPPKPKDTLMISRTPEVTCVVVDVSHEDPEVKFNWYVDGVEVHNAKTKPREEQYNSTYRVVSVLTVLHQDWLNGKEYKCKVSNKALPAPIEKTISKAKGQPREPQVCTLPPSRDELTKNQVSLSCAVKGFYPSDIAVEWESNGQPENNYKTTPPVLDSDGSFFLVSKLTVDKSRWQQGNVFSCSVMHEALHNRFTQKSLSLSPG
light: DIQLTQSPSFLSASVGDRVTITCRASQGISSFLAWYQQKPGKAPKLLIYAASTLQSGVPSRFSGSGSGTEFTLTISSLQPEDFATYYCQQLNGYPFTFGPGTKVDIKRTVAAPSVFIFPPSDEQLKSGTASVVCLLNNFYPREAKVQWKVDNALQSGNSQESVTEQDSKDSTYSLSSTLTLSKADYEKHKVYACEVTHQGLSSPVTKSFNRGEC
B4: DGL405 (bispecific antibody, human IgG1, kappa)
heavy 1: not shown
heavy 2: QVQLVESGGGLVQAGGSLRLSCAASGRIFSAYRMGWFRQAPGKEREFVAGITWRGQTTYYAASVKGRFTISKDNAKKTVYLQMNSLKPEETAVYYCAVETNGLGRWDRPSEYDYWGQGTQVTVEPKSSDKTHTCPPCPAPEAAGAPSVFLFPPKPKDTLMISRTPEVTCVVVDVSHEDPEVKFNWYVDGVEVHNAKTKPREEQYNSTYRVVSVLTVLHQDWLNGKEYKCKVSNKALPAPIEKTISKAKGQPREPQVCTLPPSRDELTKNQVSLSCAVKGFYPSDIAVEWESNGQPENNYKTTPPVLDSDGSFFLVSKLTVDKSRWQQGNVFSCSVMHEALHNRFTQKSLSLSPG
light: DIQLTQSPSFLSASVGYRVTITCRASQGISSYLAWYQQKPGKAPQLLIYAASTLQSGVPSRFSGRGSGTEFTLTISSLQPEDFATYYCQQLNGYPFTFGPGTKVNIKRTVAAPSVFIFPPSDEQLKSGTASVVCLLNNFYPREAKVQWKVDNALQSGNSQESVTEQDSKDSTYSLSSTLTLSKADYEKHKVYACEVTHQGLSSPVTKSFNRGEC
B5: DGL427 (bispecific antibody, human IgG1, kappa)
heavy 1: not shown
heavy 2: EVLLVESGGGLVKPGGSLRLSCAASGFTFSSYSMNWVRQAPGKGLEWVSSISSSSDYIHYADSVRGRFTISRDNAKNSLYLQMNSLRAEDTAVYYCARSELGFDYWGQGTLVTVSSASTKGPSVFPLAPSSKSTSGGTAALGCLVKDYFPEPVTVSWNSGALTSGVHTFPAVLQSSGLYSLSSVVTVPSSSLGTQTYICNVNHKPSNTKVDKKVEPKSCDKTHTCPPCPAPEAAGAPSVFLFPPKPKDTLMISRTPEVTCVVVDVSHEDPEVKFNWYVDGVEVHNAKTKPREEQYNSTYRVVSVLTVLHQDWLNGKEYKCKVSNKALPAPIEKTISKAKGQPREPQVCTLPPSRDELTKNQVSLSCAVKGFYPSDIAVEWESNGQPENNYKTTPPVLDSDGSFFLVSKLTVDKSRWQQGNVFSCSVMHEALHNRFTQKSLSLSPG
light: DIQMTQSPSSVSASVGDRVTITCRASQGISIWLAWYQQKPGKAPKPLIYAASSLQSGVPSRFSGSGSGTDFTLTISSLQPEDFATYYCQQANSFPLTFGGGTKVEIKRTVAAPSVFIFPPSDEQLKSGTASVVCLLNNFYPREAKVQWKVDNALQSGNSQESVTEQDSKDSTYSLSSTLTLSKADYEKHKVYACEVTHQGLSSPVTKSFNRGEC
B6: DGL443 (bispecific antibody, human IgG1, lambda)
heavy 1: not shown
heavy 2: QVTLRESGPALVKPTQTLTLTCTFSGFSLSTSGMCVSWIRQPPGKALEWLALIYWDDDKYYSTSLKTRLTISKDTSKNQVVLTMTNMDPVDTATYYCARMRRGIEAFDIWGQGTMVTVFSASTKGPSVFPLAPSSKSTSGGTAALGCLVKDYFPEPVTVSWNSGALTSGVHTFPAVLQSSGLYSLSSVVTVPSSSLGTQTYICNVNHKPSNTKVDKKVEPKSCDKTHTCPPCPAPEAAGAPSVFLFPPKPKDTLMISRTPEVTCVVVDVSHEDPEVKFNWYVDGVEVHNAKTKPREEQYNSTYRVVSVLTVLHQDWLNGKEYKCKVSNKALPAPIEKTISKAKGQPREPQVCTLPPSRDELTKNQVSLSCAVKGFYPSDIAVEWESNGQPENNYKTTPPVLDSDGSFFLVSKLTVDKSRWQQGNVFSCSVMHEALHNRFTQKSLSLSPG
light: QSVLTQPPSVSGAPGQRVTISCTGSSSNIGAGYDVHWYQQLPGTAPKLLIFGYSNRPSGVPVRFSGSKSGTSASLAITGLLAEDEADFYCQSFDISLTGWVFGGGTKLTVLGQPKAAPSVTLFPPSSEELQANKATLVCLISDFYPGAVTVAWKADSSPVKAGVETTTPSKQSNNKYAASSYLSLTPEQWKSHRSYSCQVTHEGSTVEKTVAPTECS
B7: DGL479 (bispecific antibody, V domains shown)
V domain 1: QVQLVESGGGLVQAGGSLRLSCAAPGRYAVGWFRQAPGKEYEFVAAITVSGGSKYYEDSVKGRFAISRDNAKNTVYLQMNSLKAEDTAVYYCAARTPKFGSGWYNRRGEYDYWGQGTQVTVEP
V domain 2: QVQLVESGGGLVQAGGSLRLSCAASGRTFSSYAMGWFRQAPGKEREFVSAISWSGLSTYYVESVQGRFTISRDNAKNTVYLQMNSLKPEDTAVYYCAASRIYTNYVARSYEYDDWGQGTQVTVEP
B8: DGL490 (bispecific antibody, V domains shown)
V domain 1: QVQLVESGGGLVQAGGSLRLSCAASARIFNSYAVAWFRQTPGKEREFVASISWSGGSTNYADSVKGRFTISRDNAKNTVFLQMNSLKPADTAVYYCAADRNYYPSVLGKYTYWGQGTQVTVEP
V domain 2: QVQLVESGGGLVQAGGSLRLSCAASGRTFSSYAMGWFRQAPGKEREFVSAISWSGLSTYYVESVQGRFTISRDNAKNTVYLQMNSLKPEDTAVYYCAASRIYTNYVARSYEYDDWGQGTQVTVEP
B9: DGL453 (bispecific antibody, V domains shown)
V domain 1: QVQLQESGGALVQPGGSLRLSCVVSGFTSDYFAIGWFRQAPGKEREGVSCIGSSDGSTIYSDSVKGRFTISRDNAKNTVYLQMNSLKPEDTGVYYCALDRGRRTIIGYACYATMKYWGKGTPVTVEP
V domain 2: QVQLVESGGGLVQPGGSLRLSCAASGFTFSNYAMSWIRQGPERGFEWVSRINSGGGTTSYADSVKGRFTISRDNAKNTLYLQMNSLKPEDTAVYYCAKHSHPDYSSNYYRPGQGTQVTVEP
B10: DGL604 (bispecific antibody, V domains shown)
V domain 1: QVQLVESGGGLVQAGGSLRLSCAASRSISSFNEMAWYRQAPGEQRELVATIVSTVGFTNYADSVKGRFTISRDNAKNTVYLQMNSLKAEDTAVYYCNARRISTDYWGQGTQVTVEP
V domain 2: QLQLVESGGGLVQAGGSLRLSCAASGRTFGIHGMGWFRQAPGKEREFAAAIRWSDGTTIHADSVKGRLTISRDNAKNTVYLQMNSLKPEDTAVYYCAATSNPQFGRNWYTVAAGVEYGYWGQGTQVTVEP
B11: DGL518 (bispecific antibody, V domains shown)
V domain 1: EVQLVESGGGLVQPGGSLRLFCAASRSIFNINIMGWYRQAPGKQREWLASITSGGSTFYADSVKDRFTISRDSVKNTVYLQMNSLKPEDTAAYYCNRYRSVPLNTVYPWGQGTLVTVEP
V domain 2: QVQLVESGGGLVRPGGSLRLSCAASGFTFSSNGMHWFRQAPGKGLEWVSSIGSGGTSIYYADSVKGRFTISRDNAKNTLYLQMNSLKSDDTAVYYCSKEVTGATRGQGTQVTVEP
B12: DGL508 (bispecific antibody, V domains shown)
V domain 1: EVQLVESGGGLVQAGGSLRLSCAASGLTFRNYAMAWFRQAPGKEREFVAGITWGGGLTHYVDSVKGRFTISRDNGKNTVYLQMNSLKSEDTAVYYCAGKTQGSTWYHLTPDGYDYWGQGTQVTVEP
V domain 2: QVQLVESGGGLVQAGGSLRLSCAASGRTFSRYIMGWFRQATGKEREFVAAISWSGLSTHYADSVQGRFTISRDNAENTVYLQMNSLKPEDTAVYYCAADRHWETRLLPREYDYWGQGTQVTVEP
B13: DGL505 (bispecific antibody, V domains shown)
V domain 1: EVQLVESGGGLVQAGGSLRLSCAASGLTFRNYAMAWFRQAPGKEREFVAGITWGGGLTHYVDSVKGRFTISRDNGKNTVYLQMNSLKSEDTAVYYCAGKTQGSTWYHLTPDGYDYWGQGTQVTVEP
V domain 2: QVQLVESGGGLVQLGDSLRLSCAASGRGFSSWTMAWFRQALGKRREFVAAITATGARTSSAESEGRFTISRDNAKNMVFLQMNSLKAEDTAVYYCAATGIASWDPGMADKYTYWGQGTQVTVEP
B14: DGL496 (bispecific antibody, V domains shown)
V domain 1: EVQLVESGGGLVQAGGSLRLSCAASGLTFRNYAMAWFRQAPGKEREFVAGITWGGGLTHYVDSVKGRFTISRDNGKNTVYLQMNSLKSEDTAVYYCAGKTQGSTWYHLTPDGYDYWGQGTQVTVEP
V domain 2: QVQLVESGGGLVQPGGSLRLSCAASGFTFSSKAMHWFRQAPGKGLEWVSSINSGGAITYYKDSVKGRFTVSRDNAKNILYLEMNSLKPEDTALYYCATDTDGRTRGQGTQVTVEP

For the experiment, the target named is human IL-12 receptor (IL-12Rβ1 and IL-12Rβ2) on HEK-Blue IL-12 cells (human, UniProt P42701 24-662; Q99665 24-862). Kind of experiment: cell-based or functional assay.
human IL-12 receptor (IL-12Rβ1 and IL-12Rβ2) on HEK-Blue IL-12 cells, sequence (Q99665 24-862, chain 2 of 2, other chains not shown): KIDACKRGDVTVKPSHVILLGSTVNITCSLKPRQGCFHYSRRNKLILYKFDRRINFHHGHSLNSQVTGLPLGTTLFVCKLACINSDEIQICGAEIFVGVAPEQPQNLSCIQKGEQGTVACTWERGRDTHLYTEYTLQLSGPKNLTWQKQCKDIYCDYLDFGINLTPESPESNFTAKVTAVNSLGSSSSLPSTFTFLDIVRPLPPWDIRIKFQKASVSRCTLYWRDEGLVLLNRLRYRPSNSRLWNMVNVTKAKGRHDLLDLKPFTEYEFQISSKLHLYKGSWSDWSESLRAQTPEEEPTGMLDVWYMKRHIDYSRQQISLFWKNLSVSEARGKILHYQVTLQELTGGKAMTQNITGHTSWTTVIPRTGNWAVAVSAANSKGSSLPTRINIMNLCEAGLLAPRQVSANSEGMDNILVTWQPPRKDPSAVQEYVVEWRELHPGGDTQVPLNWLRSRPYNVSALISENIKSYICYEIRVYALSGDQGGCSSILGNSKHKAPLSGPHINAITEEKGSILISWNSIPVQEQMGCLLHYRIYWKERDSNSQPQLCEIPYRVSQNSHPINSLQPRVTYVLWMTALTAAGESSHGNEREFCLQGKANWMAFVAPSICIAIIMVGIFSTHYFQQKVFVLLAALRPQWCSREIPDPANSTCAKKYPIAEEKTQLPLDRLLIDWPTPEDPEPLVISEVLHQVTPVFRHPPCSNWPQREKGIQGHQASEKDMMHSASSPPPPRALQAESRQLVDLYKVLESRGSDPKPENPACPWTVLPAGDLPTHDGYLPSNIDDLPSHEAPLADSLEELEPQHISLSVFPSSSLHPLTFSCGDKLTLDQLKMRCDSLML
Turning to B1, the “Max Absorbance” value was found to be 0.23. For B2, the half-maximal effective concentration (EC50) was 1.6e-11 M (implied) and the “Max Absorbance” value is 0.28.

With B3, the EC50 was 2.3e-10 M (implied) and the “Max Absorbance” value was determined as 0.26. For the molecule B4, the “Max Absorbance” value is 0.26.

Consider B5, for which the “Max Absorbance” value came to 0.25. The same measure, in the same setting: then B6, with 0.24; and B7, with 0.29; and B8, with 0.25.

Turning to B9, the “Max Absorbance” value worked out at 0.25. Same read-out and setting: under B10 stands 0.23; under B11, 0.27; under B12, 0.28. Same read-out and setting: under B13 stands 0.26. Still for that read-out and setting: then B14, with 0.27.
